Source: patent US20260022179A1 (CHINA MEDICAL UNIVERSITY, published 2026)

What was measured:
[1] = target: T1, recombinant human EphA10 extracellular domain protein (Glu34-Ala565), transcript variant 3, fused with … (human, UniProt Q5JZY3 34-565); test: ELISA screen of phage display clones after panning on the recombinant protein
T1 construct: range 34-565; Commercial protein used for panning and the screening ELISA; also called EPHA10-369H (Creative Biomart); not shown: C-terminal DDK/His tag
T1 sequence (looked up): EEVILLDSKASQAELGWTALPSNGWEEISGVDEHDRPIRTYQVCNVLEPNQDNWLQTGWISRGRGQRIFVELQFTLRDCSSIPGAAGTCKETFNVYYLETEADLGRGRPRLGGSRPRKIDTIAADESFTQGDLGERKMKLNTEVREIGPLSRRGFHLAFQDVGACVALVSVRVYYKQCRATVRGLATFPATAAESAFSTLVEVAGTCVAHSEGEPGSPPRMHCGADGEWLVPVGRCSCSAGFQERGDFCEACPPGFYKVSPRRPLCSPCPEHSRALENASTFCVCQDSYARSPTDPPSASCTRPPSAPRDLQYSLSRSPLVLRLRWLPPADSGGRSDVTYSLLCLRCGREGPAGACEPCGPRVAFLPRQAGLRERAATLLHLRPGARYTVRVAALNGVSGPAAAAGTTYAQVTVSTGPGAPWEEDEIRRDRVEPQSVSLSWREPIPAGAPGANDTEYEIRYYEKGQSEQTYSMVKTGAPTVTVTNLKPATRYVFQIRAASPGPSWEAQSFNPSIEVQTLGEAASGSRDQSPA
Source text: (§1) A human B cell-derived scFv phage display library (Creative BioLabs, USA) was used to pan against the recombinant human EphA10 extracellular domain protein (Glu34-Ala565), transcript variant 3, fused with DDK/His tag at C-terminal (Creative Biomart, USA, Catalog no. EPHA10-369H). Positive clones were screened using ELISA. A unique CMU #5 were identified by DNA sequencing. The binding specificity of the unique clones was confirmed by FACS using full-length human EphA 10-expressing NIH 3T3 cells.

[2] = target: T2, full-length human EphA10 expressed on NIH 3T3 cells (human, UniProt Q5JZY3 34-1008); test: FACS on transfected NIH 3T3 cells
T2 construct: whole, on cells; also called full-length human EphA 10-expressing NIH 3T3 cells
T2 sequence (looked up): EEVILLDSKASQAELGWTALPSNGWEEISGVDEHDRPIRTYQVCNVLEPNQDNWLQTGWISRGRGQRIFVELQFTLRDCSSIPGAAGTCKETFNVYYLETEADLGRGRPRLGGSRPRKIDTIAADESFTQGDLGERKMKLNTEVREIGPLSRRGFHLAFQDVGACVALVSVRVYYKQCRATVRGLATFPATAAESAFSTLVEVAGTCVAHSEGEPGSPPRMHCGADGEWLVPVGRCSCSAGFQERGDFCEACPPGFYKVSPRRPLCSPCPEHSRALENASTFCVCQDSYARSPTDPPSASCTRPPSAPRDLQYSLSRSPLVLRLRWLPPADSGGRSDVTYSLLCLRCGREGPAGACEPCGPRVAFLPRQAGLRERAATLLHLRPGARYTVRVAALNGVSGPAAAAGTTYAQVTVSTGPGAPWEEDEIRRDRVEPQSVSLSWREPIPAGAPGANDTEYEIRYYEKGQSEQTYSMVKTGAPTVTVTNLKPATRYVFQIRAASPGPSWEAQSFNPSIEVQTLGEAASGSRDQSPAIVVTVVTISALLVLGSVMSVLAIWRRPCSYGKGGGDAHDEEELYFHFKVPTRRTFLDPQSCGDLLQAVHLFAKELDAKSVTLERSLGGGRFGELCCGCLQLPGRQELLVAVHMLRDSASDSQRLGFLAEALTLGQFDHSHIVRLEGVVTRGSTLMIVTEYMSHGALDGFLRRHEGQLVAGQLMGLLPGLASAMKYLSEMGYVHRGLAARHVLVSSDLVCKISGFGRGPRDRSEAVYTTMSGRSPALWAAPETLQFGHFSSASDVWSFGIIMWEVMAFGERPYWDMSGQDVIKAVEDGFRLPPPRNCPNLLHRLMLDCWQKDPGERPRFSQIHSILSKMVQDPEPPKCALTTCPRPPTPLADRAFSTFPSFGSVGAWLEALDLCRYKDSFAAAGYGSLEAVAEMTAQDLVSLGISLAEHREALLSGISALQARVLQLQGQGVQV
Source text: as §1

B1: CMU #5 scFv (clone from the human B cell-derived scFv phage display library) (scFv)
scFv: EVQLVQSGGGVVQPGGSLRLSCAASGFTFDDYAMHWVRQAPGKGLEWVAVISYDGSNKYYADSVKGRFTISRDNSKNTLYLQMNSLRAEDTAVYYCARDGLPAFDIWGKGTLVTVSSGGGGSGGGGSGGGGSEIVLTQSPATLSVSPGERAILSCRASQSVRSNLAWYQQKPGQPPRLVIYDASSRATGIPARFSGSGSGTDFTLTISSLEPEDFAAYYCQQYGSSQLTFGGGTKLEIKR
notes: This is the clone as screened after panning
B1: binds [1]; binds [2].
